Values of other authors as cited in article PMC4872106.
pKd: −log10 of the molar value.

Target: M.EcoKI (Escherichia coli) (UniProt P08957)
Settings: cited from earlier work

M.EcoKI (Escherichia coli), sequence (P08957 whole entry, chain 1 of 2): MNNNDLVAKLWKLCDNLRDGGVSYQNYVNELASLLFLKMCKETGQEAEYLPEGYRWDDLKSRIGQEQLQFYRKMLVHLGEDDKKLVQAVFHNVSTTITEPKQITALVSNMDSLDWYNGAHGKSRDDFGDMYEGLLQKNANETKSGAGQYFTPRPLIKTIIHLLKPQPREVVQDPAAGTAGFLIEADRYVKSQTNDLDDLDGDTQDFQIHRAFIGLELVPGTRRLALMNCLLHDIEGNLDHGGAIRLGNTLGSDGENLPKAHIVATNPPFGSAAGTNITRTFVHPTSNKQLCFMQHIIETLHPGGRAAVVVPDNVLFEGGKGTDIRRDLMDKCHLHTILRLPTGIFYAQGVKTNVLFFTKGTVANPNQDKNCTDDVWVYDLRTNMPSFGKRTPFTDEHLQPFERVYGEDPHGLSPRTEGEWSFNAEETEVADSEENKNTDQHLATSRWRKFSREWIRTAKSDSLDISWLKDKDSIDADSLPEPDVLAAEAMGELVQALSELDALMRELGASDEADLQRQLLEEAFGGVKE
M.EcoKI (Escherichia coli), sequence (P05719 2-464, chain 2 of 2, further chain): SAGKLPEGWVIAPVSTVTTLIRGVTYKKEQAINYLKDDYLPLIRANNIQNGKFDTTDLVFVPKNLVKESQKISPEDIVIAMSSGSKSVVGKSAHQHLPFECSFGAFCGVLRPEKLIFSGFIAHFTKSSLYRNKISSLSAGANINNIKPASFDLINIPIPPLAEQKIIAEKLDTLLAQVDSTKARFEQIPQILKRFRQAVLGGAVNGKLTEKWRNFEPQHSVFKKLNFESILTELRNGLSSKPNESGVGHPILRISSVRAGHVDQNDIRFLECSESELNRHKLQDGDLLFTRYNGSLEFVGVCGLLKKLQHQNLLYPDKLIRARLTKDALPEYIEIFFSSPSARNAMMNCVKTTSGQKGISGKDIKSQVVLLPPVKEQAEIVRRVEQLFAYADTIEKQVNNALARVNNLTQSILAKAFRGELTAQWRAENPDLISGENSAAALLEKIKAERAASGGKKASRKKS
Ocr, sequence (P03775 whole entry): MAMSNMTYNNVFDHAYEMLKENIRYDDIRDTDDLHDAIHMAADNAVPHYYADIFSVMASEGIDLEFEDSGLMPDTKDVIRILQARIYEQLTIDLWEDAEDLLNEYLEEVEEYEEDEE

Ocr (from UniProt P03775)
pKd: 10.30
